{"source": "the NTF2 design screens of Basanta et al. (2020)"}
{"assay": "protease stability score; higher = more stable; yeast display proteolysis, trypsin and chymotrypsin;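 further: relative to predicted unfolded state with 0 unfolded-like and 1 meaning tenfold more protease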"}
{"sequence": "DELERRAEEVFRQWLHYWLTGDFESMERLADPNVRIVINGVELIGMEHVAREIVHRIRHWRVRIQIDRIDNQGDKVHSEGKLIIHQGEKNIHHDITIHFDVVNGKIKHLEIRIQ", "protease stability score": 2.24}
{"sequence": "DEDEEDARIAWEILVRVWKTGDEEELMKMADPNTRLEINGREFHGREHYLHMSRELRVERVDVRRLEVFDGKVHLEGESHMEVNGKRRTHKVVHIMRKIDGRWHIEYFIVH", "protease stability score": 1.31}
{"sequence": "DEEERLTRDWAKQWIHFLETGDEDRLMELADPHVRIDVNGQEFHGREQFNKFMSHLTTHARFETKEVQVIGNKTHIDTRMSIDGKTTETLVILIIWNGRLKELRIHHH", "protease stability score": 1.47}
{"sequence": "SELEEKAREMLTLLHKFWRTGNEEFFTKLFDPDMKLTVGDKEYIGMEDVTEYFVKWTREARLTDQETTDIEYYDGRLRIHVEMDVKQGDKRRKLESIIILLKVDGRWFATKVEIR", "protease stability score": 0.928}
{"sequence": "SEVEESAKIIAELWAHSVETGDEHTLRELMDPNTRFEYGDKERHGRENVTKYFLHFQKWLGFKHIRLEIEDSKAIGDKIKIDLTIKLHQGEKHDFVIVQLFVTKVNGRWVIHSMIVH", "protease stability score": 1.58}
{"sequence": "DELEEISDTALKMFEHVVKTGDWRELEKLLDPNVKIYYNGREYHGREEAVRIWKEILDRFGADHFELRLRHKHVQGDKVSYHIELRLHYDGKTHHTFMRIIFLKVDGKWLEHELHIH", "protease stability score": 2.38}
{"sequence": "SEDHEALHKFLKELIESSRTGDWEDVTRLADPHTRQDFNGKILHGREELKETLKELGINHMEVILNRIDVQGDKAHVDGHLVIYYNGKEITREREIRMVKIDGVWLMHEVRIK", "protease stability score": 1.15}
{"sequence": "DEDEKRELARRFAKNFLHGDHDNIRDLADKDVDAQVGDQTFTGTEQLMRVVKEVRDRVDHFNLTSVDVHNGQADIHARAKVNGRDYRVKIRIKIHNGRILHVQFNRR", "protease stability score": 1.31}
{"sequence": "SEEHRQILHVMHLILELWMTGDEETLYHLADPNVRLLIDGREYHGREQIRKVWEDHHRRADHVDFRLKRFELFENHAHVHGEFIIVVNGVEFRHETELELHVVNGRVKEHNLRIK", "protease stability score": 1.35}
{"sequence": "DEEEKDVRFFIKLLVHSLRTGDERALKHLLDPNVRMDINGREKIGWHQLRELLEEWRMHDIHITSVEVQGEKLFSHGLLEGVIGDKRVELEVEHTARKIDGRWIYTEVKFR", "protease stability score": 1.32}
{"sequence": "DEEEKLVEEALREFLRDLMTGDEDSLLRQIDPNARHVYNGQEFHGRKWFEEMHKRMGMELKRIEIKDSDIVNGRAISHVEVHSRIGDKRLRIETEIVTLKVNGQWLVKSLSLI", "protease stability score": 1.15}
{"sequence": "SEDEHMFELARHILEETDRTGDWRELEKNVDPNARLRVDGQRQHGRDSVRLLIERADHIHHRRLETFTVVNGVIHFEMHVHVIINGVPYEVEVHMHALKVDGKWIIKKVEMD", "protease stability score": 0.479}
{"sequence": "DELEHFLLEILRELAHALETGDEERLTDLIDPHARINVDGVEIHGMDHWRELLHQIRFSIEDMHITHVEVQGDKIIIHGRVHVSNEVDGVENRSETHEIWYMKKFDGRWRVTTIEVK", "protease stability score": 1.3}
{"sequence": "DPREIALKLLLQIMQELEETGDFREEEKYVDPHMRIKIDGVIYHGRSAIEHEYRRFDHIHEIELKRFHVQGDKITLEGYIRGNFDGKEHNTRSILLAKKVNGRWVLTEVTWL", "protease stability score": 0.801}
{"sequence": "DETEEMARLFNEEVRHSWKTGNEEHIKRLIDPHAKVHIGDKELHGRERATETIRKLGVKHLEIDDIHIIDGRVHVDGTLDVDGQSFRVEIILSKVNGRWLNEEIRIH", "protease stability score": -0.344}
{"sequence": "DEQFKEQKDMHRELEEALLTGDEESWHRLMDPNTRLFFEGRIHHGREEVVRAIREIRRRFGFKVIKRFEVEHVEIIDGRVDIRTIIRGEVNGRDSSLDTRLILNKIDGKWVIQSIIIE", "protease stability score": 2.2}
{"sequence": "SEDHKASHFNLILLLRAINTGDEDLEKELADPHVRYEFNGVDLVGMEDWVRFLEEIRVHPRDVKIQRHRVVNGRITFDVRLEGEFTYNGRTYRDTRETTAFVLKVNGRWIMHLHRID", "protease stability score": 1.48}
{"sequence": "DEEEDAKKFVLDVWRETLETGDEKLLLELIDPHVRIIIGDKEDHGRETLLHHFREIRFEDFQVRDIRVIGEKIHIHGEHLIRFDGRRVRLEIEIIMTKINGRWLVEEIRIR", "protease stability score": 2.58}
{"sequence": "DDNTKHAHELVERWRHIIETGDEDIMEEMLDPNVRLLIGDKDLHGRETVEIWLRVLIRRFKNVRLESVHLESVEIQGNKAFSRVRVDLRYNGREDSMDVVVVVYKIDGRWRVHELSVH", "protease stability score": 1.77}
{"sequence": "DEEKKEQRHFLKKLADSIATGDEESLEKMVDPNAKSVVNGVEQHGMELMVENLREWLERLGVTKISFHEKRFRLIGNKLEVDGTIEVNGKKFESHFIVEKVDGQWRIREIRLH", "protease stability score": 0.931}
{"sequence": "DELEEETERMFRIIIEFMLTGDWKTLYKLFDPNMLMIINGKELHGRESMATALKFWLRHIREDDIKIHHVELQGEKAISDGRSRGEIGDKEQTRKVHIEVIVINGRVHHVRVDIH", "protease stability score": 0.819}
{"sequence": "SEDIEHVEEALEMFRETLITGDEEIIRRLIDPHVRIIINGREYHGREAMDHFMKRFDVIHNLHITHWEDINGRMHVHGRIEGNIDGKTDVIETRILVVKVDGQWWFETIRIG", "protease stability score": 2.27}
{"sequence": "SESKHDLIRIFEERSEAHETGDEDFIMELIDPHVKIIIGDKTFHGREKYLEWEKLFGVKHVHFHVKDVRFQGDKVHVNGILRIRVGDKHEEFQVHILITKVNGVWIIKEIEIN", "protease stability score": 1.35}
{"sequence": "SEDEHAVRELIELESHAWRTGDEDTLRRLIDPHTRVEQGDFIFHGREEWEKFVKRLLRHMRIEDIFIHHVRVQGDKVDTDSRLLVLFEGRREHVEVDLIILKIDGRWVISQIIIK", "protease stability score": 1.39}
{"sequence": "SEEREEFEHWAKLVVHLLLTGNWEDFVKLLDPDTRFRDEDEETVGREEVEKAVNRLLDRVDHIKSVHIRHLDVINGRAFMHGQLVGHVDGRETHTEVRIKLVVVNGRIKSLQIDYK", "protease stability score": 1.99}
{"sequence": "SEREEKIEHALRRLFEVILTGDERLANELLDPNVLLDVGDKKIHGREEVMRILHHWRIDKFEMHTHDIRLIGEKAHVDTISDRRVHVNGRTQDITERVHFVVLKVNGVWFIHSMHIH", "protease stability score": 1.59}
{"sequence": "DDKEETARRILDWITKLLLTGDFDTLHRMADPHMRSNYGEFEMHGMEEHSEWWHRLTLRVDHLREEIKRVTVVNGKIVADLRLRFIIGDKVEVRDITVELIVVDGRLKELRFDVK", "protease stability score": 1.14}
{"sequence": "DDEEREVHKATEDWFKLVKTGNEEVRHELLDPHTRLIIGDKEFHGREELLRWERELGYKFKTFIITDIKVQGNKAIIHGVDVGTINGVERHLDVRLLILKVNGKWITREIEVR", "protease stability score": 1.62}
{"sequence": "DEDERERRWIYQLFLYLFITGDFHTLENLFDPHMRLHYGNKEYHGREEVSKTMLKIWRDLGVKYLSLRHFHIEIFNGRVSLHFYGEQDINGVHRDIEFRVDLVKINGKWVIEQIDLRIN", "protease stability score": 1.62}
{"sequence": "SEDEEQMKRFLDHWIHFLQTGDEEESNKLADPHTRMEIGDFELHGREEYRKWFRHIIERVDHTDVRTKDSDIVNGVAIHDIEIHIEVGDKRIRRKSEMVVLKVDGRWYIQRMHFI", "protease stability score": 0.846}
{"sequence": "GDEEHHATEALERLIHSFETGDEELMTKLVDPHVRFEVNGKLFIGREDVMRWLKERLDRFDHHRVDFKHIRVVGDKVDIHLVLEVDFNGQHFSHDVRVRIIKINGRWRLTHMSIH", "protease stability score": 2.3}
{"sequence": "SEDEEQSRHAFELWVRAYLTGNEEFLEKNADPNTRFIVGDKHIHGRELVFEFLKRIIDRRGMEIKDIKMRDMRVIGEKIEVDTTLHQHYNGVDFDHQIHFIMIKIDGKWKIKTIEIR", "protease stability score": 1.43}
{"sequence": "DENTESVHWLIRVLIQSARTGDEDSMRHLFDPNTKLNINGQEIHGREVAEEWANRVDHIEHVELHRIRNIDGQLDVEGKMRGTVNGKRDENRIELIIIKVDGQWFLRSIRIE", "protease stability score": 1.57}
{"sequence": "TEEEEKSWRLAEWFFRIIETGNEHEQKRLADPHVQIHIQIDGRHIHLHGWEELMKELKRLGIKYHKIERLRVIGEKIDEEGRLEINGREHDVRIHILIINGRMNSIHIHIE", "protease stability score": 1.66}
{"sequence": "SEDEHEMRLALEKEIKDWHTGDEDSLRELADPDVRLTVNGKRKHGWEILDVLLKHLRVRSVEIKHLRLQGDKAEMDLRMDGEVGDKRINLITHVIMYKVDGKWIIEEIVVK", "protease stability score": 1.43}
{"sequence": "DEEHKLQEDFLKALIRSILTGDWEFWKRLLDPHVRMNINGVYVHGRDEAANILIKDLERRGMEIKTITIEDRRHYDGVLEVKLRIQTTIDGQEHETSLEFHVKKYDGRWIIEHITVR", "protease stability score": 2.19}
{"sequence": "DEETEIVERYERILVKALTTGDWRRIERLMDPNVKSVVNGREYHGMERYLELYRRIRSEIRINDLRIHKVTEVGNKIEAITVWHVEVDGRIEDLETRVFLRKIDGRWILEREEVA", "protease stability score": 0.827}
{"sequence": "EEDRRMVEDAIRIFLKSLRTGDEESLTRMVDPHVKYHQGEYHMHGREELVRYFAERWEELGVENINTDMRPTHIEFQGEKIIIMGRYHLHVNGRESHTRIEFIATKIDGQWRLHKIRFE", "protease stability score": 1.53}
{"sequence": "DELFKNMHTMAEIFLKLLLTGDEDLIRHYADPNVRLEWIFNGVRFEHVGRESFMEFLHRWLEELRLHDLIVHEVRFQGDKYHMDTRERVRVDGVELDRKTEQMYVVVDGRLHSVHRIIN", "protease stability score": 0.678}
{"sequence": "SEEEKWTEIAFTLWREVVETGDEHDVQEMADPNARYKQGDKEYHGREHLLEFMVKFFRHARVDDDDHKHVRTINGRVELQMRSEVTINGKLLITDVELIIVKVNGRWVVESLILG", "protease stability score": 1.43}
{"sequence": "DEEKEISELLFRLIFHMLETGDEELSRRLLDPNTRTIWNGRHLHGREASELMRRILHHFVKGATTEIKDLKVQGDWMHFHVTIHIGDKRIRTEIIVHTIDGRIDSMEFRVT", "protease stability score": 1.39}
{"sequence": "DEERKDFEEALKKWLESMETGDEKHLEELFDPNAKFLIDGVELHGREVFKEFLRRFKNVRVEELHLDHLEVQGDKVITHVTFRGTFNGKHENVHRILIAVKFDGRWFVRSIEVH", "protease stability score": 2.34}
{"sequence": "TEDLEKVHTFLNLLLHSRLTGDEDSLHRMADPNMRVDQGEYQHHGRELFIEWTKRELEHLRLRHYHLEDIDIYNGVVKVTGKMDVEVNGRRHHVDVTLIVLKINGRWHLKSVHIS", "protease stability score": 1.24}
{"sequence": "DESEEESHKVAELVIKIWETGDEHIWENLADPHTRYEIDGKIIHGREIASHIMRIFLERVKNVTFRIKDVKRHVYNGVIEVRNETELNIGDKRIDTHIMVILRKVNGRWYMTEVRFQID", "protease stability score": 1.53}
{"sequence": "DEIEKELTDVFWEWLHLHITGDEDRLRDLMDPDVRLIYGDKTAVGREEFEKMWRELRHRFDHIRNVQIHDKRIVGNKLEMDFNFDHEVNGRREHTRVKIVLITINGKLHAFRIEVE", "protease stability score": 1.4}
{"sequence": "EHLIEELREMTERIVETILTGDEKHLADLADPNTRSHTHIGDKHYRFHGMDLIYELLHQVKNMRLHLRHTDASFVGNKVYVRLHIDLIFNGRDIHFTIHIIIDKYNGKWFIHHIELIFN", "protease stability score": 1.31}
{"sequence": "DEQEHVAERIVNDLNHSMETGDEHRIRELVDPHVRVIIGDKELHGMEEFIRWLREFGVERIRVRLKRFSFVGNKIRLDTVMNINGQNVDTKLIIEKVDGRWLLRSIHVD", "protease stability score": 2.18}
{"sequence": "SEQHEITEHIARIILEFLTTGDFTEFFKMLDPHVRITVGDKFNVGRHVFWHLWQELFDHIRIRHISLKHIHIVDGRLHLDTRVHGKVDGKETTLDQHIHIEIINGRITSVNLEYR", "protease stability score": 2.12}
{"sequence": "SEDEENAERFIQHWVHNMETGNEERLFELADPNVRLDVNGRDLIGREEFQKSMRWLINRVKNITVRVDKVTIQGNKLLVHTEVRVGDKHHETELIFLKVDGRWRIHEMRIV", "protease stability score": 1.52}
{"sequence": "SEDDHELEKLIRLWYDSVLTGDERTINELFDPNTRLEINGKVLHGMENFHRFVHTFLHHIRLKRIEIEDIKYINGVAHIDSRMVGDINGKDVRYETQFLVQKVDGKWVIKAVIIR", "protease stability score": 2.08}
